Molecular target: its ligand (ligand of TR2, not identified)
Test: cell-based or functional assay

TR2-Fc fusion protein (TR2 extracellular domain fused to human IgG1 Fc, pcDNA3, NIH 3T3) (from UniProt Q92956 37-200)
allogeneic MLR-mediated proliferation of PBMC ([3H]-thymidine incorporation): < 53%
